According to paper PMC5418593:

Key:
[1] = molecular target: T1, hEXOG wild type (hEXOG-dN58) (human, UniProt Q9Y2C4 59-368, del2-58); assay: EMSA; 20 mM EDTA; apparent Kd; EK140: 20 mM HEPES pH 7.5, 140 mM KCl, 1 mM TCEP, 5% glycerol; plus 20 mM EDTA for anisotropy and EMSA (gel at 4 C, 0.5x TBE with 20 mM EDTA); ITC in EK140 at 20 C; conditions: protein: recombinant; tags: C-terminal His-tag; chain copies: 2; label: 5'-32P; 10 bp duplex
[2] = molecular target: T2, hEXOG-R314A (human, UniProt Q9Y2C4 59-368, R314A;del2-58); assay: as above; conditions: protein: recombinant; tags: C-terminal His-tag; chain copies: 2; label: 5'-32P; 10 bp duplex
[3] = molecular target: hEXOG-H140A (human, UniProt Q9Y2C4 59-368, H140A;del2-58); assay: X-ray crystallography; 1.85 A; DNA in both active sites; EK140: 20 mM HEPES pH 7.5, 140 mM KCl, 1 mM TCEP, 5% glycerol; plus 20 mM EDTA for anisotropy and EMSA (gel at 4 C, 0.5x TBE with 20 mM EDTA); ITC in EK140 at 20 C; conditions: protein: recombinant; tags: C-terminal His-tag; chain copies: 2; 10 bp duplex; two duplexes per dimer
[4] = molecular target: T1, hEXOG wild type (hEXOG-dN58); assay: fluorescence anisotropy; 20 mM EDTA; apparent Kd; EK140: 20 mM HEPES pH 7.5, 140 mM KCl, 1 mM TCEP, 5% glycerol; plus 20 mM EDTA for anisotropy and EMSA (gel at 4 C, 0.5x TBE with 20 mM EDTA); ITC in EK140 at 20 C; conditions: protein: recombinant; tags: C-terminal His-tag; chain copies: 2; label: 3'-fluorescein; 10 bp duplex
[5] = molecular target: T2, hEXOG-R314A; assay: as above; conditions: protein: recombinant; tags: C-terminal His-tag; chain copies: 2; label: 3'-fluorescein; 10 bp duplex
[6] = molecular target: T1, hEXOG wild type (hEXOG-dN58); assay: fluorescence anisotropy; 20 mM EDTA; apparent Kd (main text 6.2); EK140: 20 mM HEPES pH 7.5, 140 mM KCl, 1 mM TCEP, 5% glycerol; plus 20 mM EDTA for anisotropy and EMSA (gel at 4 C, 0.5x TBE with 20 mM EDTA); ITC in EK140 at 20 C; conditions: protein: recombinant; tags: C-terminal His-tag; chain copies: 2; label: 3'-fluorescein; 10 bp duplex

B1: 10 bp dsDNA, 5'-32P (dsDNA)
DNA 1: CTGACGTGCG
DNA 2: CGCACGTCAG
modifications: 5'-phosphate (32P)
Kd [1]: 3.4 ± 1.2 nM | Kd [2]: 26.5 ± 6.6 nM

B2: 10 bp DNA for crystallization (dsDNA)
DNA 1: CTGACGTGCG
DNA 2: CGCACGTCAG
modifications: 5'-phosphate on one strand only
binding result [3]: binds

B3: 10 bp 5'OH-dsDNA, 3'-fluorescein (dsDNA)
DNA 1: CTGACGTGCG
DNA 2: CGCACGTCAG
modifications: 5'-OH
Kd [4]: 22.2 ± 5.1 nM

B4: 10 bp 5'P-dsDNA, 3'-fluorescein (dsDNA)
DNA 1: CTGACGTGCG
DNA 2: CGCACGTCAG
modifications: 5'-phosphate on one strand
Kd [5]: 35.7 ± 7.2 nM | Kd [6]: 6.25 ± 2 nM
